Results: publication PMC5314372

Assays:
[1] = molecular target: N-terminally-truncated ΦAB6 tailspike protein (residues 136-699) (bacteriophage ΦAB6); test: crystal structure; hanging-drop vapor diffusion at 20 °C; 1.0 M sodium malonate pH 7.0 or 0.9 M sodium citrate, 0.1 M sodium cacodylate pH 6.5; space group C2, one trimer in the asymmetric unit; free form and forms soaked with Ab-54149 polysaccharide
[2] = molecular target: N-terminally-truncated ΦAB6 tailspike protein (residues 136-699) (bacteriophage ΦAB6); test: AUC; sedimentation at 20,000 rpm, Beckman XL-A, An-60 Ti rotor; 25 mM Tris-HCl, 300 mM NaCl, pH 8.0; analysed with SEDFIT
[3] = molecular target: bacteriophage ΦAB6 tailspike protein (bacteriophage ΦAB6); test: SEC; analytical gel-filtration column, single peak; calibration curve of log MW versus Ve/V0 with five protein markers
[4] = molecular target: bacteriophage ΦAB6 tailspike protein (bacteriophage ΦAB6); test: AUC; sedimentation at 20,000 rpm, Beckman XL-A, An-60 Ti rotor; 25 mM Tris-HCl, 300 mM NaCl, pH 8.0; analysed with SEDFIT

Row | Substance | stoichiometry N [1] | stoichiometry N [2] | stoichiometry N [3] | stoichiometry N [4]
1 | N-terminally-truncated ΦAB6 tailspike protein (residues 136-699) (domain or fragment) | 3 | 3 | – | –
2 | bacteriophage ΦAB6 tailspike protein (enzyme) | – | – | 3 | 3
